In patent US20230285589A1, “LIPOSOME COMPLEX FOR CANCER TREATMENT, COMPRISING NOVEL CD47 BINDER AND POLYNUCLEOTIDE” (priority 2020, published 2023):

Key:
[1] = 5'-nucleotidase preferred substrate (Km), dTMP; assay type: biochemical; conditions: according to Table 4
[2] = target: recombinant CD47 protein (Homo sapiens, UniProt Q08722); assay: SPR, CD47 conjugated to CM5 chip; conditions: 250 RU CD47, 1:1 binding model
Protocol: Specifically, the recombinant CD47 protein was conjugated to the surface of the CM5 chip by a target SPR reaction of 250 RU through an EDC-NHS reaction to be used, and for HBS-P, the sensogram obtained through a process of association for 3 minutes and dissociation for 10 minutes at a flow rate of 30 μL/minutes was analyzed with the BiaEvaluation software using a 1:1 binding model and global fitting.

Sequence of recombinant CD47 protein (Q08722 19-323): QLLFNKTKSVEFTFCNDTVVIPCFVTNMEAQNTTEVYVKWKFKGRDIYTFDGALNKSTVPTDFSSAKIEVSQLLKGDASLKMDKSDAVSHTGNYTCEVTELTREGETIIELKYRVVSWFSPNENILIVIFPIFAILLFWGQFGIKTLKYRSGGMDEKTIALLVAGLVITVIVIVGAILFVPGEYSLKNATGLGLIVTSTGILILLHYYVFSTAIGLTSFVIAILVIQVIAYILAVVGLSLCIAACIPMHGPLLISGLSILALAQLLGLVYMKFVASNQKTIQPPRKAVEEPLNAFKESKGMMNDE

Molecule	affinity for dTMP, times lower compared to T001 [1] [times]	ka [2] [M⁻¹ s⁻¹]	kd [2] [s⁻¹]
NT5M: Human mitochondrial 5′-deoxyribonucleotidase (SEQ ID NO: 32) (protein, NT5M) MGGRALRVLVDMDGVLADFEGGFLRKFRARFPDQPFIALEDRRGFWVSEQYGRLRPGLSEKAISIWESKNFFFELEPLPGAVEAVKEMASLQNTDVFICTSPIKMFKYCPYEKYAWVEKYFGPDFLEQIVLTRDKTVVSADLLIDDRPDITGAEPTPSWEHVLFTACHNQHLQLQPPRRRLHSWADDWKAILDSKRPC	30		
SV4: CD47 binder of SEQ ID NO: 2; SV1 with lysines at positions 11 and 104 substituted with leucine (protein, CD47 binder SV4) MEEELQIIQPDLSVSVAAGESAILHCTITSLFPVGPIQWFRGAGPARVLIYNQRQGPFPRVTTVSETTKRENMDFSISISNITPADAGTYYCIKFRKGSPDTEFLSGAGTELSVRAKPS		164000	0.000275
